The values that follow come from publication PMC10514136, “Peptide-conjugated antimiRs improve myotonic dystrophy type 1 phenotypes by promoting endogenous MBNL1 expression” (Molecular Therapy. Nucleic Acids, 2023).

Several values for one entry are separate records, joined by “and”; a condition that tells them apart may be missing. Equal values may be shown once. Read-outs that look alike come from different tables or passages of the source.

One data set deals with Nfix exon 7. The data set is described as follows: Alternative splicing of Nfix exon 7 in muscle by RT-PCR (PSI, splice recovery). Type of data set: in vivo, mouse. Conditions: HSALR mice, individual mice; for Percentage spliced-in (PSI) Nfix Gast: 9.2 mg/kg (mean) i.v. x3, day 45, gastrocnemius; for Percentage spliced-in (PSI) Nfix Quads: 9.2 mg/kg (mean) i.v. x3, day 45, quadriceps. The method, then:
(§1) Total RNA from murine gastrocnemius and quadriceps muscle was isolated using the miRNeasy Mini Kit (QIAGEN, Hilden, Germany) according to the manufacturer’s instructions. One microgram of RNA was digested with DNase I (Invitrogen, Carlsbad, CA) and reverse transcribed with SuperScript II (Invitrogen) using random hexanucleotides. For subsequent PCR reactions, 20 ng of cDNA was used with GoTaq polymerase (Promega). Specific primers were used to analyze the alternative splicing of Nfix, Atp2a1, and Clcn1 in mouse samples (both muscles). Gapdh levels established the endogenous reference levels using 0.2 ng of cDNA. PCR products were separated on a 2% agarose gel and quantified using ImageJ software (NIH, Bethesda, MD). PSR index was defined as value%SI minus X¯%DSI , divided by X¯%DSI minus X¯%HSI (SI, splicing inclusion of each sample; DSI, disease splicing inclusion; HSI, healthy splicing inclusion). Overall, PSR indicates the amount in both muscles analyzed. Primer sequences and exons analyzed are available in Cerro-Herreros et al.[20] In the case of off-targets, interleukins, and muscle regeneration marker Mstn-1, primers sequences are available in Table S5. We used 1 ng of mouse tissue cDNA as a template for multiplex qPCR using the QuantiFast Probe PCR Kit reagent. Commercial TaqMan probes (QIAGEN) were used for mouse (Mbnl1 and Mbnl2; FAM-labeled probes) and reference (GAPDH; MAX-labeled probe) genes. Results were normalized to Gapdh endogenous gene expression.
(§2) We used homozygous transgenic HSA^LR (line 20 b) mice,[90] which were kindly provided by Dr Thornton (Rochester, NY) and were housed and bred in our animal facility. Experimental groups were FVB as healthy control and HSA^LR treated with a scrambled ON (SC) and PBS as negative controls, and HSA^LR mice treated with all six experimental CPP-PMOs. The mice were randomly allocated to the different treatments as follows: in each cage, each mouse was ear-marked as it was taken out, and each mouse was then assigned to a different treatment. […] Mice were sacrificed 45 days after the first injection and the tissues of interest were frozen in liquid nitrogen for the molecular and histological assays. All the mice used in this study ranged from 5 to 5.5 months of age and all were males.

Another data set deals with Atp2a1 exon 22. The data set is described as follows: Alternative splicing of Atp2a1 exon 22 in muscle by RT-PCR (PSI, splice recovery). Type of data set: in vivo, mouse. To be noted: HSALR mice, individual mice; for Percentage spliced-in (PSI) Atp2a1 Gast: 9.2 mg/kg (mean) i.v. x3, day 45, gastrocnemius; for Percentage spliced-in (PSI) Atp2a1 Quads: 9.2 mg/kg (mean) i.v. x3, day 45, quadriceps. The method, then:
as §1, §2

A further data set concerns DM1 cells. The experiment in a line: Cell proliferation assay (CellTiter 96 AQueous), cell growth inhibition after lipofection. Type of data set: cell-based, human. The method, then:
Cells seeded at 10^5 cells/mL in 96-well plates were transfected 24 h later with antimiRs as described previously.[20] After 96 h, cell proliferation was measured using the CellTiter 96 AQueous Non-Radioactive Cell Proliferation Assay (Promega, Madison, WI). Absorbance levels were determined using an Infinite M200 PRO plate reader (Tecan, Männedorf, Switzerland) and the TC50 was calculated using non-linear least-squares regression.

Data set [1] can be described thus: ELISA determination of antimiR conjugate concentrations in tissues. Type of data set: in vivo, mouse. Conditions: HSALR mice, 9.2 mg/kg (mean) i.v. x3, day 45, hybridization ELISA, background subtracted, individual mice. The method, then: Custom ELISA-based measurements of antimiR conjugate concentrations in brain, kidney, liver, heart, gastrocnemius, and quadriceps from treated HSA^LR mice were performed as described in Burki et al.,[89] using the following phosphorothioate probes: for miR-218 (5′ → 3′) [DIG] T∗T∗G∗T∗G∗C∗T∗TGATCTA∗A∗C∗C∗A∗T∗G∗T [BIO]; for miR-23b (5′ → 3′) [BIO] A∗T∗C∗A∗C∗A∗T∗TGCCAGG∗G∗A∗T∗T∗A∗C∗C [DiG] double-labeled with digoxigenin (DIG) and biotin (BIO). In all cases, a control sample was used to subtract the background (HSA^LR treated with PBS for 9b2 and 9b2-KC ONs; HSA^LR treated with Scramble for 6aKC ONs).
Mouse handling and experimental procedures followed the European law regarding laboratory animal care and experimentation (2003/65/C.E.) and were approved by Conselleria de Agricultura, Generalitat Valenciana (reference no. A1539961490857). We used homozygous transgenic HSA^LR (line 20 b) mice,[90] which were kindly provided by Dr Thornton (Rochester, NY) and were housed and bred in our animal facility. Experimental groups were FVB as healthy control and HSA^LR treated with a scrambled ON (SC) and PBS as negative controls, and HSA^LR mice treated with all six experimental CPP-PMOs. The mice were randomly allocated to the different treatments as follows: in each cage, each mouse was ear-marked as it was taken out, and each mouse was then assigned to a different treatment. Animals were injected biweekly intravenously with 150 μL of 1× PBS vehicle (controls; HSA^LR n = 7 and FVB n = 6) or 150 μL of a solution 1.875 mg/mL of the test CPP-PMOs corresponding to an average dose of 9.2 mg/kg (HSA^LR mice: SC n = 5, 9b2-218 n = 5, 9b2-23b n = 5, […] n = 5, […] n = 5, 6aKC-218 n = 5, and 6aKC-23b n = 5; see Table S6 for precise dosing). Mice were sacrificed 45 days after the first injection and the tissues of interest were frozen in liquid nitrogen for the molecular and histological assays. All the mice used in this study ranged from 5 to 5.5 months of age and all were males.

Regarding “6aKC-23b (antisense GGUAAUCCCUGGCAAUGUGAU; all phosphorodiamidate morpholino (PMO), T or U not given here; Pip6aKC peptide conjugated)”, in the data set on Nfix exon 7, the “Percentage spliced-in (PSI) Nfix Gast” value is 63.59% and 47.55% and 61.79% and 62.43% and 69.22%; the “Percentage spliced-in (PSI) Nfix Quads” value is 56.32% and 62.29% and 64.55% and 58.42% and 53.11%. Also, in the data set with Atp2a1 exon 22, the “Percentage spliced-in (PSI) Atp2a1 Gast” value is 14.22% and 26.08% and 16.73% and 17.96% and 14.74%; the “Percentage spliced-in (PSI) Atp2a1 Quads” value was 29.81% and 23.38% and 17.76% and 24.03% and 33.87%. Also, the “TC50” value with DM1 cells is on record as 1711.00 nM. Besides, in data set [1] (9.2 mg/kg), the “CPP-PMO concentration (pM), Brain” value is 0.83 pM and 9.49 pM and 11.43 pM and 25.59 pM and 4.02 pM; the “CPP-PMO concentration (pM), Gastrocnemius” value was 93.86 pM and 1846.67 pM and 1209.72 pM and 472.26 pM and 199.58 pM; the “CPP-PMO concentration (pM), Heart” value is 1789.14 pM and 954.01 pM and 1508.23 pM and 1701.45 pM; the “CPP-PMO concentration (pM), Kidney” value is 174345.23 pM and 110334.18 pM and 239168.85 pM and 16740.44 pM and 230939.23 pM. Further, in data set [1] (9.2 mg/kg), the “CPP-PMO concentration (pM), Liver” value is 4615.98 pM and 9209.58 pM and 10333.80 pM and 76.40 pM and 8623.71 pM; the “CPP-PMO concentration (pM), Quadriceps” value is 72.30 pM and 93.71 pM and 165.91 pM and 28.58 pM and 1.72 pM.
On to “6aKC-218 (antisense ACAUGGUUAGAUCAAGCACAA; all phosphorodiamidate morpholino (PMO), T or U not given here; Pip6aKC peptide conjugated)”, for which, in the data set on Nfix exon 7, the “Percentage spliced-in (PSI) Nfix Gast” value is 68.36% and 70.85% and 73.58% and 51.68% and 74.79%; the “Percentage spliced-in (PSI) Nfix Quads” value is 52.44% and 62.29% and 52.77% and 89.96% and 66.72%. Besides, in the data set on Atp2a1 exon 22, the “Percentage spliced-in (PSI) Atp2a1 Gast” value was 14.70% and 11.51% and 10.78% and 31.20% and 12.62%; the “Percentage spliced-in (PSI) Atp2a1 Quads” value was 21.08% and 26.96% and 31.16% and 9.84% and 26.51%. Also, the “TC50” value in the data set on DM1 cells was 1809.00 nM. Besides, the “CPP-PMO concentration (pM), Brain” value in data set [1] is 5.54 pM. In data set [1] (9.2 mg/kg), the “CPP-PMO concentration (pM), Gastrocnemius” value was 3105.34 pM and 4126.64 pM; the “CPP-PMO concentration (pM), Heart” value was 220.63 pM and 8031.17 pM and 1672.26 pM; the “CPP-PMO concentration (pM), Kidney” value was 807303.00 pM and 163863.50 pM and 282189.80 pM and 288519.00 pM and 763252.10 pM; the “CPP-PMO concentration (pM), Liver” value is 11820.61 pM and 1738.96 pM and 6547.20 pM and 6702.77 pM and 6452.86 pM. Also, the “CPP-PMO concentration (pM), Quadriceps” value in data set [1] (9.2 mg/kg) was 56.37 pM and 3449.73 pM and 180.55 pM.
Turning to “9b2-23b (antisense GGUAAUCCCUGGCAAUGUGAU; all phosphorodiamidate morpholino (PMO), T or U not given here; Pip9b2 peptide conjugated)”, in the data set with Nfix exon 7, the “Percentage spliced-in (PSI) Nfix Gast” value was 55.08% and 63.11% and 66.38% and 63.52% and 47.66%; the “Percentage spliced-in (PSI) Nfix Quads” value is 15.30% and 54.78% and 4.40% and 48.44% and 23.44%. Also, in the data set on Atp2a1 exon 22, the “Percentage spliced-in (PSI) Atp2a1 Gast” value was 52.69% and 18.37% and 16.01% and 11.16% and 23.52%; the “Percentage spliced-in (PSI) Atp2a1 Quads” value is 98.27% and 99.53% and 75.32% and 25.61% and 36.45%. Also, the “TC50” value in the data set with DM1 cells came to 88.00 nM. Also, in data set [1] (9.2 mg/kg), the “CPP-PMO concentration (pM), Brain” value is 84.29 pM and 5.89 pM and 3.33 pM; the “CPP-PMO concentration (pM), Gastrocnemius” value was 1173.05 pM and 672.99 pM and 96.96 pM; the “CPP-PMO concentration (pM), Heart” value was 458.72 pM and 70.02 pM and 540.73 pM; the “CPP-PMO concentration (pM), Kidney” value was 417329.90 pM and 445161.13 pM and 596014.00 pM. Also, in data set [1] (9.2 mg/kg), the “CPP-PMO concentration (pM), Liver” value is 14705.39 pM and 13935.38 pM and 16995.86 pM; the “CPP-PMO concentration (pM), Quadriceps” value is 664.60 pM and 444.65 pM and 237.24 pM.
Turning to “9b2-218 (antisense ACAUGGUUAGAUCAAGCACAA; all phosphorodiamidate morpholino (PMO), T or U not given here; Pip9b2 peptide conjugated)”, in the data set with Nfix exon 7, the “Percentage spliced-in (PSI) Nfix Gast” value is 58.31% and 29.97% and 59.09% and 66.06% and 69.09%; the “Percentage spliced-in (PSI) Nfix Quads” value is 30.95% and 10.51% and 43.26% and 15.39% and 35.59%. Also, in the data set on Atp2a1 exon 22, the “Percentage spliced-in (PSI) Atp2a1 Gast” value was 14.72% and 85.58% and 28.83% and 19.19% and 31.61%; the “Percentage spliced-in (PSI) Atp2a1 Quads” value was 71.69% and 99.29% and 50.19% and 99.72% and 99.28%. Also, the “TC50” value in the data set on DM1 cells is on record as 42.00 nM. In data set [1] (9.2 mg/kg), the “CPP-PMO concentration (pM), Brain” value is 33.45 pM and 18.40 pM and 128.86 pM; the “CPP-PMO concentration (pM), Gastrocnemius” value is 504.97 pM and 1534.26 pM and 428.98 pM; the “CPP-PMO concentration (pM), Heart” value was 1166.04 pM and 1995.51 pM and 1662.31 pM; the “CPP-PMO concentration (pM), Kidney” value was 348919.38 pM and 303314.43 pM and 726042.17 pM. For the same substance, in data set [1] (9.2 mg/kg), the “CPP-PMO concentration (pM), Liver” value was 16959.56 pM and 11986.59 pM and 23535.44 pM; the “CPP-PMO concentration (pM), Quadriceps” value was 482.70 pM and 1344.85 pM and 1437.67 pM.
For “TCTTACCTCAGTTACAATTTA-Pip9b2 [Scramble, reference compound]”, in the data set on Nfix exon 7, the “Percentage spliced-in (PSI) Nfix Gast” value was 62.98% and 52.74% and 55.70% and 81.00% and 76.46%; the “Percentage spliced-in (PSI) Nfix Quads” value is 60.30% and 80.52% and 66.59% and 72.38% and 72.49%. In the data set on Atp2a1 exon 22, the “Percentage spliced-in (PSI) Atp2a1 Gast” value was 6.44% and 27.49% and 24.15% and 5.60% and 15.65%; the “Percentage spliced-in (PSI) Atp2a1 Quads” value is 18.65% and 34.43% and 18.71% and 17.01% and 7.50%. Besides, the “TC50” value in the data set on DM1 cells (toxic concentration 50, DM1 cells transfected 24 h after seeding, read after 96 h, absorbance, non-linear least-squares regression) was determined as 217.00 nM.
